Values quoted from earlier work, collected in article PMC10044870.

Biological target: cleaved high molecular weight kininogen (HKa) (Homo sapiens) (UniProt P01042)
Sequence (P01042 19-380, chain 1 of 2): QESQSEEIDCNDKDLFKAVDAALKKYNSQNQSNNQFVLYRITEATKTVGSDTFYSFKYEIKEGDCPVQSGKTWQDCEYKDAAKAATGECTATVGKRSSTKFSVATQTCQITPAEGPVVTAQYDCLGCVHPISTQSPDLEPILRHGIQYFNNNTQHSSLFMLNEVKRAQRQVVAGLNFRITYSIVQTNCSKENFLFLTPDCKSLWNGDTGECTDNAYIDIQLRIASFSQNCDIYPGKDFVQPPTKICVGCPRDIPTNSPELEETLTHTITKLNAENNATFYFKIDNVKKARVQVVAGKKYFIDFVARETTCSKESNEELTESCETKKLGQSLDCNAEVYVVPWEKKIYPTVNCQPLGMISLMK
Sequence (P01042 390-644, chain 2 of 2): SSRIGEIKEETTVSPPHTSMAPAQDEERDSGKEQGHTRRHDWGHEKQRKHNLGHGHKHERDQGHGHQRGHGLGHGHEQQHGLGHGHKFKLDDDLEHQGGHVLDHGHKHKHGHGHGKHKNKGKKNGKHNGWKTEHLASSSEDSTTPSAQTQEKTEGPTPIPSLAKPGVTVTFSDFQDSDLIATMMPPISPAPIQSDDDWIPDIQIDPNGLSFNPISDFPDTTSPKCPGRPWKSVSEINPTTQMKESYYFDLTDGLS

Sequence of ferritin (P02794 2-183): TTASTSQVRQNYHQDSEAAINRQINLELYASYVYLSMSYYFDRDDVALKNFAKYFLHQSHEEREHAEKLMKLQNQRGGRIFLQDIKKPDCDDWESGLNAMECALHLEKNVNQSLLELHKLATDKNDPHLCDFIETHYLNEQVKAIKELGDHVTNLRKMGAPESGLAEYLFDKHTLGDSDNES
Sequence of ferritin (P02792 2-175, further chain): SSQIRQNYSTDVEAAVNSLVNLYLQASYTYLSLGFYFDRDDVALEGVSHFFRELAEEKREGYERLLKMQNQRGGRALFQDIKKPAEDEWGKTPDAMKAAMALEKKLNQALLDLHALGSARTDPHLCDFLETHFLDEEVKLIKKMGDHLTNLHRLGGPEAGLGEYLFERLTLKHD

With ferritin (from UniProt P02794) as the substance, how does the Kd read?
The Kd was 0.013 µM.
